Tests used:
[1] = molecular target: MBP-WSP-1(334 aa-608 aa) (C. elegans); assay: pull-down; MBP pull-down with competitors (Figure 6B): MBP-WSP-1 on amylose resin; soluble extracts of GST-NCK-1 F.L., GST-UNC-34 F.L. and His-VAB-1 as load; band intensities quantified from at least two independent blots with Image J; wash 20 mM Tris-Cl pH 7.5, 200 mM NaCl, 1 mM EDTA, 1 mM DTT
[2] = molecular target: GST-NCK-1 F.L., full length NCK-1 (1 aa-397 aa) (C. elegans); assay: as above

Sequence of MBP-WSP-1(334 aa-608 aa) (C. elegans) (main, as listed by the source): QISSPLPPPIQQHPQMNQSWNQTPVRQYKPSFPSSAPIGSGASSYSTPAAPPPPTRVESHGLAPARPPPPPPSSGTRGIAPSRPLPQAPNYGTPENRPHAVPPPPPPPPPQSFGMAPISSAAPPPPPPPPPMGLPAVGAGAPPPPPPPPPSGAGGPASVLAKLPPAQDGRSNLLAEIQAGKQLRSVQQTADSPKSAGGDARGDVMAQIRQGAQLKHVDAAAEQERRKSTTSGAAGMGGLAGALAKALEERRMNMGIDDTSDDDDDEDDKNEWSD

relative intensity of NCK-1 pulled down by MBP-WSP-1 with UNC-34 and VAB-1 added (NCK-1 alone = 1.0) [1]	relative intensity of NCK-1 pulled down by MBP-WSP-1 with UNC-34 added (without UNC-34 = 1.0) [2]	Substance
1.3		GST-NCK-1 F.L., full length NCK-1 (1 aa-397 aa) (natural protein)
	0.3	GST-UNC-34 F.L., full length UNC-34 (1 aa-454) (natural protein)

From paper PMC3285579
